Source: patent publication US20250179176A1, “ANTI-TIGIT ANTIBODIES AND USES OF THE SAME” (ARCUS BIOSCIENCES, INC., priority 2022, published 2025)

Experiments:
[1] = Population PK model and simulations; set-up: species or system human
Procedure: All available PK data from this study were combined in a population PK model. […] The population PK model confirmed that the PK of domvanalimab was dose-linear over the dose range and consistent across the dosing regimens.
Simulations were run with the model of n=500 patients each at 10 mg/kg Q2W, 15 mg/kg Q3W, and 20 mg/kg Q4W dosing regimens for 24 weeks.

[2] = Clinical safety of domvanalimab, 99 participants (AB154CSP0001 and ARC-7): TEAEs, related AEs, SAEs; format: in vivo, human

B1: domvanalimab: anti-TIGIT antibody with engineered IgG1 Fc, reduced FcγR binding; heavy chain SEQ ID NO: 12, light chain SEQ ID NO: 13 (antibody)
heavy: EVQLVESGGGLVQPGGSLRLSCAASGFTFSNFGMHWVRQAPGKGLEWVAFISSGSSSIYYADTVKGRFTISRDNAKNSLYLQMNSLRAEDTAVYYCARMRLDYYAMDYWGQGTMVTVSSASTKGPSVFPLAPSSKSTSGGTAALGCLVKDYFPEPVTVSWNSGALTSGVHTFPAVLQSSGLYSLSSVVTVPSSSLGTQTYICNVNHKPSNTKVDKKVEPKSCDKTHTCPPCPAPEAAGGPSVFLFPPKPKDTLMISRTPEVTCWVDVSHEDPEVKFNWYVDGVEVHNAKTKPREEQYNSTYRWSVLTVLHQDWLNGKEYKCKVSNKALPAPIEKTISKAKGQPREPQVYTLPPSRDELTKNQVSLTCLVKGFYPSDIAVEWESNGQPENNYKTTPPVLDSDGSFFLYSKLTVDKSRWQQGNVFSCSVMHEALHNHYTQKSLSLSPGK
light: DIQMTQSPSSLSASVGDRVTITCRASKSISKYLAWYQQKPGKAPKLLIYSGSTLQSGVPSRFSGSGSGTDFTLTISSLQPEDFATYYCQQHNEYPWTFGGGTKVEIKRTVAAPSVFIFPPSDEQLKSGTASWCLLNNFYPREAKVQWKVDNALQSGNSQESVTEQDSKDSTYSLSSTLTLSKADYEKHKVYACEVTHQGLSSPVTKSFNRGEC
[1]; estimated based on the population PK model
  terminal half-life: 19.9 days
[1]; population PK model
  volume of distribution: approximated plasma volume
[1]; population PK model, 0.5-20 mg/kg, Q2W, Q3W, Q4W
  dose linearity of PK: dose-linear
[2]; 99 participants
  SAE small bowel obstruction, frequency: 4.0%
[2]; AB154CSP0001 (N = 62)
  Domvanalimab-related AE: Abdominal distension: 1 ( 1.6%)
  Domvanalimab-related AE: Abdominal pain: 1 ( 1.6%)
  Domvanalimab-related AE: Anaemia: 1 ( 1.6%)
  Domvanalimab-related AE: Any AEs: 32 (51.6%)
  Domvanalimab-related AE: Arthralgia: 1 (1.6%)
  Domvanalimab-related AE: Arthritis: 1 ( 1.6%)
  Domvanalimab-related AE: Aspartate aminotransferase increased: 1 ( 1.6%)
  Domvanalimab-related AE: Back pain: 1 ( 1.6%)
  Domvanalimab-related AE: Constipation: 1 ( 1.6%)
  Domvanalimab-related AE: Decreased appetite: 1 (1.6%)
  Domvanalimab-related AE: Diarrhoea: 3 (4.8%)
  Domvanalimab-related AE: Fatigue: 4 (6.5%)
  Domvanalimab-related AE: Flank pain: 1 ( 1.6%)
  Domvanalimab-related AE: Headache: 3 (4.8%)
  Domvanalimab-related AE: Hot flush: 1 ( 1.6%)
  Domvanalimab-related AE: Hyperglycaemia: 1 ( 1.6%)
  Domvanalimab-related AE: Hyperkalaemia: 1 ( 1.6%)
  Domvanalimab-related AE: Hyperthyroidism: 2 (3.2%)
  Domvanalimab-related AE: Hypokalaemia: 1 ( 1.6%)
  Domvanalimab-related AE: Hypothyroidism: 4 (6.5%)
  Domvanalimab-related AE: Immune-mediated hepatitis: 2 ( 3.2%)
  Domvanalimab-related AE: Influenza like illness: 1 ( 1.6%)
  Domvanalimab-related AE: Infusion related reaction: 1 ( 1.6%)
  Domvanalimab-related AE: Liver function test increased: 1 ( 1.6%)
  Domvanalimab-related AE: Lymphopenia: 1 ( 1.6%)
  Domvanalimab-related AE: Muscle spasms: 1 ( 1.6%)
  Domvanalimab-related AE: Musculoskeletal chest pain: 1 ( 1.6%)
  Domvanalimab-related AE: Nail disorder: 1 ( 1.6%)
  Domvanalimab-related AE: Nasal mucosal disorder: 1 ( 1.6%)
  Domvanalimab-related AE: Nausea: 5 (8.1%)
  Domvanalimab-related AE: Oral pain: 1 ( 1.6%)
  Domvanalimab-related AE: Pain: 2 ( 3.2%)
  Domvanalimab-related AE: Peripheral sensory neuropathy: 1 ( 1.6%)
  Domvanalimab-related AE: Pneumonitis: 1 ( 1.6%)
  Domvanalimab-related AE: Pruritus: 5 (8.1%)
  Domvanalimab-related AE: Pruritus generalised: 1 ( 1.6%)
  Domvanalimab-related AE: Pulmonary pain: 1 ( 1.6%)
  Domvanalimab-related AE: Pyrexia: 3 (4.8%)
  Domvanalimab-related AE: Rash: 1 (1.6%)
  Domvanalimab-related AE: Rash maculo-papular: 3 (4.8%)
  Domvanalimab-related AE: Rash pruritic: 1 ( 1.6%)
  Domvanalimab-related AE: Transaminases increased: 1 ( 1.6%)
  Domvanalimab-related AE: Tumour flare: 3 (4.8%)
  Domvanalimab-related AE: Tumour pain: 1 ( 1.6%)
[2]; ARC-7 (N = 37)
  Domvanalimab-related AE: Adrenal insufficiency: 1 ( 2.7%)
  Domvanalimab-related AE: Any AEs: 18 (48.6%)
  Domvanalimab-related AE: Arthralgia: 3 (8.1%)
  Domvanalimab-related AE: Asthenia: 1 ( 2.7%)
  Domvanalimab-related AE: Back pain: 1 ( 2.7%)
  Domvanalimab-related AE: Constipation: 1 ( 2.7%)
  Domvanalimab-related AE: Cough: 1 ( 2.7%)
  Domvanalimab-related AE: Decreased appetite: 2 (5.4%)
  Domvanalimab-related AE: Delirium: 1 ( 2.7%)
  Domvanalimab-related AE: Diarrhoea: 2 (5.4%)
  Domvanalimab-related AE: Dry eye: 1 ( 2.7%)
  Domvanalimab-related AE: Dry mouth: 1 ( 2.7%)
  Domvanalimab-related AE: Dyspnoea exertional: 1 ( 2.7%)
  Domvanalimab-related AE: Fatigue: 2 (5.4%)
  Domvanalimab-related AE: Generalised oedema: 1 ( 2.7%)
  Domvanalimab-related AE: Headache: 1 (2.7%)
  Domvanalimab-related AE: Hyperthyroidism: 1 (2.7%)
  Domvanalimab-related AE: Infusion related reaction: 1 ( 2.7%)
  Domvanalimab-related AE: Infusion site pain: 1 ( 2.7%)
  Domvanalimab-related AE: Malaise: 2 ( 5.4%)
  Domvanalimab-related AE: Myalgia: 1 ( 2.7%)
  Domvanalimab-related AE: Nausea: 1 (2.7%)
  Domvanalimab-related AE: Pancreatitis: 1 ( 2.7%)
  Domvanalimab-related AE: Paraesthesia: 1 ( 2.7%)
  Domvanalimab-related AE: Pneumonitis: 1 ( 2.7%)
  Domvanalimab-related AE: Pruritus: 4 (10.8%)
  Domvanalimab-related AE: Pyrexia: 2 (5.4%)
  Domvanalimab-related AE: Rash: 3 (8.1%)
  Domvanalimab-related AE: Rash maculo-papular: 3 (8.1%)
